Data from patent publication US20150139990A1 (DAINIPPON SUMITOMO PHARMA, published 2015).

Key:
[1] = target: T1, human CD81 mutant V135A (human, UniProt P60033 1-236, limits assumed); assay: ELISA
T1 construct: as m30; not shown: C-terminal V5 and 6xHis tags
T1 sequence: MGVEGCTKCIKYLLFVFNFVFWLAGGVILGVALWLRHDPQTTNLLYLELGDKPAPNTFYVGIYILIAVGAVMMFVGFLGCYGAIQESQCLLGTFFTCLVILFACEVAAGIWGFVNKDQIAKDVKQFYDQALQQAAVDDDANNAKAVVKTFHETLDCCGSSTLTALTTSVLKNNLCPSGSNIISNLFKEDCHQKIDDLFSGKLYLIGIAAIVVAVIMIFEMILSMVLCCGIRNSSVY
Summary of the method: (§1)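 Altered forms of human CD81 carrying C-terminal V5 and 6×His tags were cloned in pcDNA-DEST40 and expressed transiently in CHO cells for 48 hours, after which membranes were solubilised in 1% n-octylglucoside and captured on Ni-NTA His Sorb plates at 5 μg/100 μL/well for 3 hours at 4° C. Antibody was bound for 1 hour at room temperature and detected with HRP anti-human IgG4 and TMB, reading absorbance at 450 nm. Relative binding affinity is expressed as a percentage of binding to unmodified CD81, adjusted for V5-tag expression.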

[2] = target: T2, human CD81 mutant G158S (human, UniProt P60033 1-236, limits assumed); assay: ELISA
T2 construct: as m30; not shown: C-terminal V5 and 6xHis tags
T2 sequence: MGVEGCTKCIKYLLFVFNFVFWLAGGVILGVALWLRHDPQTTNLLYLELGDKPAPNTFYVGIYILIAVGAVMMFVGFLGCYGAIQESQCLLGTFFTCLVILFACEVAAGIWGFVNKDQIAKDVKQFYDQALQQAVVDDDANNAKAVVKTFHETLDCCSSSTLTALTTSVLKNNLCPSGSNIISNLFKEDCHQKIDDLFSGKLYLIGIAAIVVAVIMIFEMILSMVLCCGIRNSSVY
Summary of the method: as §1

[3] = target: T3, human CD81 mutant L165A (human, UniProt P60033 1-236, limits assumed); assay: ELISA
T3 construct: as m30; not shown: C-terminal V5 and 6xHis tags
T3 sequence: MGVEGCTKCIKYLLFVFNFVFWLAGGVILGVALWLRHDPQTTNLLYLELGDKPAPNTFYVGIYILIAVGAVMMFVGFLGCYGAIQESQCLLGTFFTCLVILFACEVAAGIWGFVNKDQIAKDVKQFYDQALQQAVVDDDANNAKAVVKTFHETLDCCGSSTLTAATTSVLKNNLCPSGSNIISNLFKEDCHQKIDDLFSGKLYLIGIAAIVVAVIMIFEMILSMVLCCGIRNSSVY
Summary of the method: as §1

[4] = target: T4, human CD81 mutant V169A (human, UniProt P60033 1-236, limits assumed); assay: ELISA
T4 construct: as m30; not shown: C-terminal V5 and 6xHis tags
T4 sequence: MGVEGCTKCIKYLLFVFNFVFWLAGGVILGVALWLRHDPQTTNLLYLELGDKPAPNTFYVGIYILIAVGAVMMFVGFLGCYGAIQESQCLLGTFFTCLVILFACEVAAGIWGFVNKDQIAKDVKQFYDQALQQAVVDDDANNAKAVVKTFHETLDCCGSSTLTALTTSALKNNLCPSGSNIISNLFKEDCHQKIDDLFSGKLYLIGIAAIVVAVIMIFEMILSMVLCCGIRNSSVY
Summary of the method: as §1

[5] = target: T5, human CD81 mutant S168T (human, UniProt P60033 1-236, limits assumed); assay: ELISA
T5 construct: as m30; not shown: C-terminal V5 and 6xHis tags
T5 sequence: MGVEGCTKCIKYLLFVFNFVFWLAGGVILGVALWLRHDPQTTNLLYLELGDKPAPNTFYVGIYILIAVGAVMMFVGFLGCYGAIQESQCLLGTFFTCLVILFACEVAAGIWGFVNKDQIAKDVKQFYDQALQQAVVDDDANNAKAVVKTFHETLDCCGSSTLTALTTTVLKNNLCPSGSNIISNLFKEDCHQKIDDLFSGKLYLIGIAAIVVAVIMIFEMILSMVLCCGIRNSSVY
Summary of the method: as §1

[6] = target: T6, human CD81 on CD81-expressing cells (Jurkat E6.1, human PBMC, Ramos) (human, UniProt P60033 1-236); assay: flow cytometry, human PBMC
T6 construct: endogenous CD81 of the cells; also called wild type human CD81
T6 sequence: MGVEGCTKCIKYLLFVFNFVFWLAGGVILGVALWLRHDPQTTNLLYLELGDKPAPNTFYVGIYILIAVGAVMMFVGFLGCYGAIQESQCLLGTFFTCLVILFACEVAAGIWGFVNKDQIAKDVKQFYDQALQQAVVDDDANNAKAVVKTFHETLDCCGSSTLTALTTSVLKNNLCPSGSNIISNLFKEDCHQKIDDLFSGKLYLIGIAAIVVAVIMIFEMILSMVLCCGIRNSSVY
Excerpt: Based on known information (JOURNAL OF VIROLOGY., 79, 4316-4328, 2005), Jurkat E6.1 cells and human PBMC (Peripheral Blood Mononuclear cells) were used as human CD81-expressing cells to confirm binding of the antibodies of the present invention obtained in Example 1 to the human CD81-expressing cells. Jurkat E6.1 cells were purchased from European Collection of Cell Cultures (ECACC) (Cat No. 88042803). Human PBMC were purchased from KAC Co., Ltd. (KAC). These cells were collected by centrifugation (4,000 rpm, 3 min, 4° C.) and suspended in FACS staining buffer (phosphate buffer, 0.09% sodium azide, 1% bovine serum albumin (BSA: Hyclone Laboratories)). The number of viable cells was counted using trypan blue and 10⁶ cells/100 μl were added in an eppendorf tube.
To the cells prepared in (1) above was added the anti-human CD81 antibody (002-A07 or 005-001) prepared in Example 1 or a human IgG4 (Acris) as a control (0.1 μg), and the cells were incubated for 20 min at 4° C. […] The binding ratio (%) of the anti-human CD81 antibody to the cells was analyzed by flow cytometry using FACS Calibur (BD Biosciences) and calculated as the percentage of cells having a PE-derived fluorescent intensity greater than that observed when the control IgG4 is used. […]

relative binding affinity [1]: < 20%
relative binding affinity [2]: < 20%
relative binding affinity [3]: < 20%
relative binding affinity [4]: < 20%
relative binding affinity [5]: < 20%
binding ratio to cells (%) [6]: 99%
B1: 002-A07 IgG4 antibody (antibody)
heavy: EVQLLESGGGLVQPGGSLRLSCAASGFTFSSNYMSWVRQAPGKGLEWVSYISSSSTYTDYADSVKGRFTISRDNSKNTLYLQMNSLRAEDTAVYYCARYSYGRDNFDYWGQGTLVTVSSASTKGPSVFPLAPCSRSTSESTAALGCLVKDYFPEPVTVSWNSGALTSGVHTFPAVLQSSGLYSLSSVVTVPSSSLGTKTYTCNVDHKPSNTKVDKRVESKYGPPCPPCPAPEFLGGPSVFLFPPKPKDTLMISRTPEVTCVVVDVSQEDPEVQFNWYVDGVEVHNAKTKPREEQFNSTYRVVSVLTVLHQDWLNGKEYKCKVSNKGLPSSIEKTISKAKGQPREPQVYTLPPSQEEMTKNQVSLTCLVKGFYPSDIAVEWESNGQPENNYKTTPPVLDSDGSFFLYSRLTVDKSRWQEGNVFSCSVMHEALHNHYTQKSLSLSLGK
light: QSVLTQPPSASGTPGQRVTISCTGSTSNIGAGYDTHWYQQLPGTAPKLLIYGNSNRPSGVPDRFSGSKSGTSASLAISGLRSEDEADYYCQSYDTNLSVWVFGGGTKLTVLGQPKAAPSVTLFPPSSEELQANKATLVCLISDFYPGAVTVAWKADSSPVKAGVETTTPSKQSNNKYAASSYLSLTPEQWKSHRSYSCQVTHEGSTVEKTVAPTECS
notes: human IgG4 S228P, lambda light chain
